Measurements: US12485192B2, “Cellular targeted label delivery system” (CELLIS AG, priority 2016, dated 2025)

System: CD45+ leukocyte cells (macrophages, monocytes, lymphocytes, granulocytes)
Assay: Uptake of iron binding proteins by CD45+ leukocyte cells in culture
Format: cell-based, mouse
Conditions: incubation 1-4 hrs, 0.1-0.2 mg/ml protein solution, standard culture conditions; FIG. 5
Protocol: (§1) Obtained cells are incubated in ferritin solution for a time and at the concentration sufficient to ensure proper ratio of ferritin/cell for their full load and also to ensure proper contrast content to obtain proper imaging). The time and concentration may vary depending on the number of molecules encapsulated/adsorbed into the ferritin cage, status of cell activation, condition and number of their intended administration.
For example, to ensure proper load with ferritins, cells are incubated for 1-4 hrs in ferritin solution 0.2 mg/ml in standard culture conditions. The frame of ferritin concentration may vary at least between 0.01 and 4 mg/ml as well as incubation time (5 min-6 hrs or more). Adjusting time and concentration of ferritin load to cells, the influence of ferritin and treatment conditions on cell viability should be minded.
as §1, with “haemoglobin” for “ferritin”, “haemoglobin/cell” for “ferritin/cell”, “imaging.” for “imaging).”, “linked with” for “encapsulated/adsorbed into”, “haemoglobin molecule,” for “ferritin cage,”, “administration. […]” for “administration.”

B1: ferritins: recombinant mouse ferritin protein of SEQ ID NO: 4 expressed in E. coli (protein)
chain: MTTASPSQVRQNYHQDAEAAINRQINLELYASYVYLSMSCYFDRDDVALKNFAKYFLHQSHEEREHAEKLMKLQNQRGGRIFLQDIKKPDRDDWESGLNAMECALHLEKSVNQSLLELHKLATDKNDPHLCDFIETYYLSEQVKSIKELGDHVTNLRKMGAPEAGMAEYLFDKHTLGHGD
  uptake of iron binding protein by cells: very easily uptake
